T1: HD-PTP Bro1 domain (residues 1-361) (UniProt Q9H3S7 1-361)
T1 construct: His Domain Protein Tyrosine Phosphatase (HD-PTP), Bro1 domain, residues 1-361; cloned into pNIC-28a-Bsa4; No tag cleavage is described for the His6-tagged proteins; The vector pNIC28-Bsa4 probably adds an N-terminal His6 tag with a TEV site (surmise); also called His Domain Protein Tyrosine Phosphatase Bro1; source: E. coli BL-21(DE3), purified (Nickel beads, MonoQ anion exchange, Superdex200 SEC)
T1 sequence (looked up): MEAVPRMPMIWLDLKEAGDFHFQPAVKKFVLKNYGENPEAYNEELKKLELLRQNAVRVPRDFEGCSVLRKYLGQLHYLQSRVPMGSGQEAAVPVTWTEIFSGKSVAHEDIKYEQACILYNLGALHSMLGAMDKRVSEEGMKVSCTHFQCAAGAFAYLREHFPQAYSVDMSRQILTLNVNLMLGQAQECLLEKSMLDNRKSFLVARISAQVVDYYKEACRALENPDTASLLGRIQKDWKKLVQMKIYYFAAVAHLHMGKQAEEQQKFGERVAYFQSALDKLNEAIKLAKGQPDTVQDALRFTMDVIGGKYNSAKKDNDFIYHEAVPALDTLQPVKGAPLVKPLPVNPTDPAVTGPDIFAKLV

T2: HD-PTP Bro1-CC-PRR (residues 1-738) (UniProt Q9H3S7 1-738)
T2 construct: His Domain Protein Tyrosine Phosphatase (HD-PTP), Bro1 and coiled-coil domains plus the proximal region of the PRR (714-738), residues 1-738; cloned into pET28a (NdeI/XhoI); immobilised by the His6 tag on the HTE chip; also called HD-PTP_(Bro1-CC-PRR (+tag)); source: E. coli BL-21(DE3), purified (Nickel beads, MonoQ anion exchange, Superdex200 SEC); not shown: His6, N-terminal, kept
T2 sequence (looked up): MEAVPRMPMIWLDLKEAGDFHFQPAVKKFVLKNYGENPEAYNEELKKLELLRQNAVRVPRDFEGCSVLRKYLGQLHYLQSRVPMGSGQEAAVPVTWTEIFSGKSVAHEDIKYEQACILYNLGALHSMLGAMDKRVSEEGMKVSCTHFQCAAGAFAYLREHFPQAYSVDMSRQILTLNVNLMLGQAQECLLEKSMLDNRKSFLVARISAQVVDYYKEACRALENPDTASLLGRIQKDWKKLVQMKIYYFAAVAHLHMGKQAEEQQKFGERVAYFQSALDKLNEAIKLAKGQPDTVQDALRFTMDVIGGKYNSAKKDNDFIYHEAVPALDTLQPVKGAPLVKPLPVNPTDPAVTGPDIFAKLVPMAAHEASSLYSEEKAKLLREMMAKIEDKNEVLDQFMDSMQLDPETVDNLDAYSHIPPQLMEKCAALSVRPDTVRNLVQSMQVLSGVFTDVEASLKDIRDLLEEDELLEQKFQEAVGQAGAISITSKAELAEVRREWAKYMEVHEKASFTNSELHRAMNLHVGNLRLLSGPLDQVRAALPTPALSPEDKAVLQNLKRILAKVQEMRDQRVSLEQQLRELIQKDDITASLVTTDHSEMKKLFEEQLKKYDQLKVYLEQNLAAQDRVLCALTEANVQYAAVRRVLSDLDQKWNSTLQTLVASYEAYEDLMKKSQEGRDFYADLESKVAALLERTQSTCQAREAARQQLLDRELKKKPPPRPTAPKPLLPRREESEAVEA


Experiments:
Conditions in all cases: both partners purified
[1] = biological target: T1, HD-PTP Bro1 domain (residues 1-361); assay: SPR; ProteOn XPR36; GST-FL-CHMP4B captured on a GLC chip derivatised with anti-GST antibody (3000-4000 RU); HD-PTP proteins as analytes; equilibrium binding model; 25 °C; 10 mM HEPES pH 7.4, 150 mM NaCl, 0.05% Tween-20
[2] = biological target: T2, HD-PTP Bro1-CC-PRR (residues 1-738); assay: as above
[3] = biological target: T2, HD-PTP Bro1-CC-PRR (residues 1-738); assay: SPR; ProteOn XPR36; His6-tagged HD-PTP Bro1-CC-PRR immobilised on an HTE chip (5000-8000 RU); synthetic peptides as analytes; equilibrium binding model; 25 °C; 10 mM HEPES pH 7.4, 150 mM NaCl, 0.05% Tween-20

Binder	Kd [1]	Kd [2]	Kd [3]
GST-tagged full length CHMP4B (natural protein, UniProt Q9H444 1-224, looked up, CHMP4B (ESCRT-III subunit), full length; Captured on the chip by an anti-GST antibody; also called FL-CHMP4B; source: E. coli C41, purified (GSTrap FF, glutathione elution)) MSVFGKLFGAGGGKAGKGGPTPQEAIQRLRDTEEMLSKKQEFLEKKIEQELTAAKKHGTKNKRAALQALKRKKRYEKQLAQIDGTLSTIEFQREALENANTNTEVLKNMGYAAKAMKAAHDNMDIDKVDELMQDIADQQELAEEISTAISKPVGFGEEFDEDELMAELEELEQEELDKNLLEISGPETVPLPNVPSIALPSKPAKKKEEEDDDMKELENWAGSM	4.88 ± 0.3 µM	1.1 ± 0.1 µM	–
KKKEEEDDDMKELENWAGSM (CHMP4B, C-terminal residues 205-224; also called peptide from the C-terminus of CHMP4B; source: synthetic peptide (Generon Ltd, UK)) [CHMP4B peptide (residues 205-224)]	–	–	30.9 ± 0.2 µM
SNIKSLSFPKLDSDDSNQKT (UBAP1 (ESCRT-I subunit), central region, residues 261-280; also called central region of UBAP1; source: synthetic peptide (Generon Ltd, UK)) [UBAP1 peptide (residues 261-280)]	–	–	57.5 ± 3.1 µM

From paper PMC5567221, “The open architecture of HD-PTP phosphatase provides new insights into the mechanism of regulation of ESCRT function” (Scientific Reports, 2017)
